Assay: soluble on expression in E. coli; label from the status in PepcDB or PDB records
With “MGSDKIHHHHHHMNDIIKLIKSIIIEMDMEAYIVGGYIRDKLMNPKNSASDLDIAFQGDFEKILDELRKRKIKVSSIKKDSSVYRITVNGYCADISKIKGKNINEDLSKRDFTVNAIALDIKNNKIVDPFDGRVHIKRRILQVIDEKSFEDDAVRILRGIRFYIKYGMHFNGYTEEYIRKHSKNIMKFPRDRVLDEIIHIIHEDENGVFFEVMDQYMILKNILPYMEELKTVGKCKHHLVDAFTHMNTAYHVFKDMKKKYLKVKNINIEEFNKDIGVYNELDYLAFAIFTHDIGKYVSYKKEGQKISFKGHDEKGLEIIEKVCDELKFPNDGKKIVCSVVKNHMYPLMLFKLKEDERKQEEYEFFNKFDQYVPHIIVASFCDVYATTIYIDENNEKDRFTSFISELVVKYREFINLKKIKYIDGNDLIDMGFRGNDIGNILNELNKMLYIEGSKTKKEQQDFVLRMKDKL” the “soluble on expression in E. coli” value was “not soluble”. With “MGSDKIHHHHHHMNVTTSTLADGREIIYFDDHELREGERVLHDSRDLPHTQPLSEIRHDPLTNTWVAYAAHRMNRTFMPPANENPLAPTTPGNLPTEIPSPTYDVVVFENRFPSFSMNIAVGEDWESYVDGIDLYPRRPALARCEVVCFTPDVDKSFKDLPVSRIRTVINAWAHRTEALSALSGVQQVFPFENRGEEIGVTLQHPHGQIYSYPFLSPRLQAIVQSAQYYAETHDGHDLFDAIIREESAVQTRVIERTEHFIVFVPAAAKWPVEAMVMPLRAVADFTELTDVERDDLAALLKRLYTAVDSFFEGVTKTPYIAGWTQAPVDPALRPFGRLHLQLFSLMRSPNRMKFLAGSESSQGVWINDTTPERIAQRFKEVWPHATLD” the “soluble on expression in E. coli” value was “not soluble”. In the case of “MGSDKIHHHHHHMPLSIITNTFAGNPLDRDSERRGDEAFLAEKLADPESLAVALWNGKPLVEDILGEDGKPTGVQIAYLRADMAQDLAGGSEKLLYMGLWKDIAVFAVDIEGAADPAEGPLQGLGRFEELRGAAASMPPADAGILATAKSMFEWRRRHRWCSACGQKTEVSDGGWKRVCPSCEAEHFPRTDPVAIMLAIHDGKCLLGRQAMWPQGMFSALAGFIEPGETIEEACARELQEEAGLKATAVRYHSSQPWPWPSSLMMGLIAEVDSDEAAPDQTELEEVRWFTREEALQLIRGELDGLFAPPPLAIAHQLIKAWAEEA”, the “soluble on expression in E. coli” value is reported as “not soluble”. With “MTTLNELKHGLEEAWESLAEGWHRLRERAAGALTRFKPGASVPAVPRRQEDFYLASPTWALLAGDVYEDDRKVVIRLEVPGMEKEDFNLELRGDLLIVQGEKRLERETSEGRYRVLQCAYGHFHRVIPLPAEVVADRVQASYRNGVLKIELPKAAARLPRNIEIPVRLEHHHHHH” the “soluble on expression in E. coli” value was “not soluble”. For “MKNENENEICFIAGVGDSNGYGWGIAKELSKRNVKVIFGVWPPVYNIFIKNLESGKFDKDMIINNDNSKRMQILDVLPLDAGFDNYDDIDEDTKNNKRYNNLKNYSIEEVANLIYNKYGKISMLVHSLANGREVQKSLLDTSRDGYLDAISKSSYSLISLCKHFCKFMNSGGSVVSLTYQASQKVVPGYGGGMSSAKAALESDTRVLAYYLGRKYNIRINTISAGPLKSRAATAINKFNNNQKNNMNSSGETDKQNYSFIDYAIDYSEKYAPLKKKLLSTDVGSVASFLLSKESSAVTGQTIYVDNGLNIMFGPDDLFQSSDS”, the “soluble on expression in E. coli” value was “soluble”. For “MSERESLSGADNAWRRMGTPTNLMTITGVMMFDERMTYEDLCNRLEERLLRFERFQQRIGGRKRRFRQPYWETVDGFDVEPHVYHISLPEPQDKATFEAFVGKLMSRPLDESRPLWEAYLVDGAGPGEGNAVAFRLNHSIGDGFALLYVLLGLVDNPGDIELPSGMVSAPDDIGDDADSGADGGNGSDESDVASGDGQPADTDSKSDGERGSSGLPSPVSAAGTAATGVATGYDLLFGDDDPDTSLRGELGQTKRAAWTDEIPLEQVRTVCEAQPHRATINDVLLAALAGALRRLLEDRGEPVDGMELHGTVPVNLKPMAERDGSLGNNFGLVFLPLPVGTEPLQERISIIHEWMDGKRAGIQAFLMYALLTIGGHVPEYVQKKVMTLFEDRATGVVTNVPGPTDAIQFAGREITDMIFWVPQANEQGIGISIFSYDGNVRVGVAADENLLGAPGELAAAFEAEMEALLEDAELEHHHHHH”, the “soluble on expression in E. coli” value was “soluble”. For “RQSVQTVLPESTGNNTLSLRDSVCRDLFQLFSSPHSPLPILLVSGMPEWQGHNQSDKLLQSWYCRQLRSALLFHEPRIAALQVNLKEAYCHELAISLEMMLYHDDEPLTFDLVWQKG”, the “soluble on expression in E. coli” value was “not soluble”. With “MRRYASYPTYSSVHPVGLISRVSGASGIGCRMRRYASYPTYSSVHPVGLISRVSGASGIGCRMRRYASYPTYSSVHPVGLISHVSGASGIGCRMRRHPSYPTYSSVHLVGLISRVSDASGIGCRIQSTGVFYFTWLRANRLSSFSSYWLEHHHHHH” the “soluble on expression in E. coli” value was “not soluble”. For “MDWKITIFTYNLAMKASDSEAVHNMLNGMIDDHTHLVAIGLQEVAHSETIGGAVLTWATTIASWMNTNGRMVLLAKTFQATNQVLIFGRKQLIGQIKRIDYRFQRNTMGGLTGHKGSIGVRLQLASPYSIVFVDSHFIHGPENYGKRVEQYHTNRNCSFPEDKSVRAAFWFGDFNFRVEEDVNTVIRKIKNGTHLELLDTREQLKRALVERDAFIGFHEQPVTFEPTYRVTVGTTEQDGKRVPSWTDRILYKGDGITGLSYTNNKKAVASDHLPVVAMFRVTAPAAPKPQWEVIFEHLPTWYTSIPLVGRFQVNELYYKENGSYRDWIGVFPSSINDCTTATNWIYAATCFEQVIEGSKFLACEFNNIPAGNYRLGYFSCHLHCLVGLSKVFQIVEQP”, the “soluble on expression in E. coli” value was “not soluble”. In the case of “MSLSAYSQVSIDKTMFVEGREFLHIDQAGWVAKESTSEEDNRMSKVQEMLSEKYQKDSFSIYVKQLTTGKEAGINQDEKMYAASVLKLSYLYYTQEKINEGLYQLDTTVKYVSAVNDFPGSYKPEGSGSLPKKEDNKEYSLKDLITKVSKESDNVAHNLLGYYISNQSDATFKSKMSAIMGDDWDPKEKLISSKMAGKFMEAIYNQNGFVLESLTKTDFDSQRIAKGVSVKVAHKIGDADEFKHDTGVVYADSPFILSIFTKNSDYDTISKIAKDVYEVLKEGHHHHHH”, the “soluble on expression in E. coli” value is reported as “soluble”. With “MQGEDRWADIREMNDRLIACERCPRLVEFRKAVVGRDKRFRGETYWARPVPGYGDINGRLLIVGLAPAASGGNRTGRVFTGDKSSDFLVSCLHEAGITNQPTSERRDDGLIYYDAYITAAVKCVPPDNKPLPEEIENCSVYLRSEIGFMKNLKVILVLGQIALQAVVRLIADPAEPRSRYRFVHGAVYSMNGIRVVCSYHPSPRNVNTGKLKRSDFVDLLKKVKEMALE” the “soluble on expression in E. coli” value was “not soluble”. With “MIYQKQRNTAETQLNISISDDQSPSHINTGVGFLNHMLTLFTFHSGLSLNIEAQGDIDVDDHHVTEDIGIVIGQLLLEMIKDKKHFVRYGTMYIPMDETLARVVVDISGRPYLSFNASLSKEKVGTFDTELVEEFFRAVVINARLTTHIDLIRGGNTHHEIEAIFKAFSRALGIALTATDDQRVPSSKGVIE” the “soluble on expression in E. coli” value was “soluble”. For “MAKTIFYFSYRKTEELHAKAKELKKITTDYGYELTDDYQKANVIISIGGDGAFLKSVRETGFRQDCLYAGIALTEQLGQYCDFHINQLDEIIKAAIEDRWLVRRYPTIYGTVNNTKAFYVLNEFNIRSSIIRTLTMDLYINDSHFETFRGDGMVISTPTGSTAYNKSVNGSIVDPLLPSMQVSELASINNNKFRTLGSSFILSPKRKLRIEIASEEGNNEFPMIGMDSEALSIQHVHEVNLEVGDRFINIIKLPKNSFWDKVKRNFLLEHHHHHH”, the “soluble on expression in E. coli” value was “soluble”. In the case of “MGSDKIHHHHHHMLKDLVREKLLTIMNTKAYTQFNPEQLLQLENEMKIYMKSGDSALTEGNYFFLMEMLFYVLVYRNQDVDAQVVYNTLRDRLGENSYKMVIMKATLLQINGNDKGAIEYLENLLNDDLEYETDFVTYVSIAKKLIAIKTTSKNLSQESVLKEVVALTDKFPLDAELWWYASEIYFEMGQFEKACYCLEQVLCITPFNYACFGRLSETLYYEALRSKKQTKTELLEKALKNALRSVELSELYLKGWALVNIISRELGRNKQNDLIKLSASKLKEISAKSNNKDKITAELILNKI”, the “soluble on expression in E. coli” value is reported as “not soluble”. With “MKYIVLLGDGMSDEAVKDLDGKTPLQAAKTPHMDVMARRGRIGLAHTVPKGLPPGSDVANLSVFGYDPRTCYTGRSPLEAASMGVQLGPDDVAFRVNLVNLLPTKGTLVMNDYSAGHISTEEGRELIEAIQQQIGDDEFQFYPGVGYRHLMVWRNGKSGMSATPPHDISGKSILDYLPKGEGADKLIYLMNSSQMILNNHPQYRRRLEADKIPANSIWLWGHGKAPRMEPFKEKFGLAGAVISAVDLINGIGIGAGLDVIRVEGATGYLDTNYEGKVQAALEALETHDYVYLHVEAPDEASHSGNLSHKLQAIEDFDARVVGPIMEGIRRFGSFRILCTPDHPTPLRLKTHTGAPVPFIIYDGGESEDDSIAGYDEDSARTSGLVLEEGHRLMELLLERLEHHHHHH” the “soluble on expression in E. coli” value was “soluble”. For “MAIQFELYKSPARKDEEDKELYHARVVNFQHIDTDYLAKEIQQATSLTEGDVKAVLESLSHFMGSRLREGERVHLDGIGYFQVKLNSLEPITSPKLKANQMKLKANIGFKADKKLRSSVSVVKVERSKLKLHSVPRSNEEIDRLLTAYFSNNQILTRSDFQGLCKLTLTTAARHIKRLKEEKKLQNINTRQSPVYVPMPGYYGKPEVEDTVK”, the “soluble on expression in E. coli” value was “not soluble”. With “MAFPFDILHLEIIRSTLESEKDRCEAKEKFGTIIDNLNGPADIEKYESLVQKAFLHANAETKLESIGFRVGRQLVEKVSKESPKLVTELEIVKFICKDFWSSVFGKQVDNLRTNHQGVYVVQDGRFTTLRSFPEGDQYVKESGYFLAFPCGLLRGALAGLNIRAIVTPTIESVPSVKFHIQVQPK” the “soluble on expression in E. coli” value was “not soluble”. With “MAHHHHHHMSISGAAAPAPLRGRESGGNVPGSMGALIKKLHPLYTQRVRPLEEMYSFDVFRPSWYEETILNERPFITLFGPWSAGKTTFINYLLQSNDLWTGPQPTTAEFTVVMYGKEPGPVAGQALANSKHLPFKGLLDFGESFIRNLKGFQAPHALLERVTLIDTPGVLESAKDIHQRKYDYVNVCRWFAERSDLIFVFFDPSKLDAGGELRQLFQTSFKGFENRLRLVLNKADTISTQELMRVYGSLFWNLSNFINTTEPPRVYVGSFWDKPYSPNSFSRLFAEEKLDLLHELLEVIPQQARDKKVASLIRRAKEVLVHAVILGGIRADLPLLFGKSKAKKKAAEQLPRRYELIGARYKMNHRDFPPVQAYRSFLERFDVAKFPPLQKAEKAGLIRGIQELIDTILPSMLRPVCNTRAANPFEEDKQTGLLSMYRDHVLLQRDGRPGMQGGTDKVASTMGQGVPDSATTGPSSSVAAAPASGPSSLLGPGPAVTALSASPPFIELPSRAMAASSTAVAASSPPPPPPSSAAATSSPADMQAMMAIMQQMVAYQQQQQQQQDRQSSSAPATVNSHGTLSSSSSETSGCLAESSVPVTPQESNLNSEPQPPTVVPQLGLPNSCATQISAWAGGDESKSQH” the “soluble on expression in E. coli” value was “soluble”. For “MYRQGTNQSVCSDADEFTPEELQEFAQAFKLFDKDGNNTMNIKELGEAMRMLGLNPTEEELLNMVNEYDVDGNGKIDFGEFCKMMKEMNKETDQELIRLAFKVFDKDGNGYITAQEFKHFMTTMGERFSEEEVDEIIREVDKDGDEQIDLDEFVNMVAPIVSDGTKTDPFLEPTASTNPPTK”, the “soluble on expression in E. coli” value was “not soluble”. For “MKILYIILFIQIGWIFPLSAQKQDSIYIGTRHTLFSEILNEERKYWIYVPETKAGEKGKAYPVLYLLDGDSFFHSVVGFTRFFSSSKTSNLPPCIVVAVLNTDRTRDFTPTCSAARRDGTICPYDKPAGGGAEQFHRFLIEELRLEVENKVPANGTNFLVGHSYAGLFTLQTLSNHPESFDSYIAIDPSLWWDRGVFLQQAAKNVYQKDFSGKHLYVAFATRQRPAIKLIQFSLADSLKNKIIPEMKNKHLHVVYKKFPDEVHGTIALPAIFDGLKSLFHNTISTKEAT”, the “soluble on expression in E. coli” value was “not soluble”.
